Experimental data published in the supplement of paper PMC10724198.
± gives the standard deviation of the averaged measurements.

Each sequence was assayed on Saccharomyces cerevisiae (assay: protein stability index of tFT-peptide fusion (C-terminal peptide) (PSI (0-1 scale)); higher = more stable (slower turnover)). Settings: genetic background: wild type; temperature: 30 C.
Experimental: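 Multiplexed protein stability (MPS) profiling in S. cerevisiae. Random 12-aa peptides (tFT-X12 library) are fused to the C-terminus of a sfGFP-mCherry tandem fluorescent timer, after mCherry and a GGGS linker. Cells are FACS-sorted into 8 mCherry/sfGFP bins and deep-sequenced. The protein stability index (PSI) is the read-weighted bin average, scaled from 0 (unstable) to 1 (stable). Only peptides with >10 reads are reported; cells were grown at 30 °C in SC-His with glucose.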
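Note: PSI is a weighted mean of sequencing reads over stability bins, variants kept only with over 10 reads, mCherry proximal and sfGFP distal, peptide attached via GGGS linker.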

| Sequence | protein stability index |
| --- | --- |
| AAASWRVRIGRG | 0.7425 ± 0.004 |
| AAFERRDPDLKV | 0.766 ± 0.062 |
| AAIPPPLHTWRY | 0.722 ± 0.054 |
| AANRCSVLPLGF | 0.601 ± 0.041 |
| AAPPPAPPPPPR | 0.694 ± 0.0082 |
| AAPSPHPLNSLS | 0.687 ± 0.036 |
| AAQHNSLRGGPP | 0.731 ± 0.036 |
| AASPRDPQKDHA | 0.711 ± 0.057 |
| AAVSRPLPLGPP | 0.693 ± 0.075 |
| AAYGCSGGEVGW | 0.68 ± 0.025 |
| ACDFCIPGVRLD | 0.745 ± 0.022 |
| ACDGIRRPVRGG | 0.697 ± 0.059 |
| ACEAERRTFRWV | 0.66 ± 0.012 |
| ACGGVWASGRGG | 0.705 ± 0.017 |
| ACGLVSTSWYGA | 0.713 ± 0.086 |
| ACLCFIEFRCLL | 0.547 ± 0.017 |
| ACLWRLSWVLGK | 0.641 ± 0.037 |
| ACLYDSMSVSSK | 0.6386 ± 0.0012 |
| ACSPGHCTTGTS | 0.649 ± 0.021 |
| ACTWASSSLARG | 0.735 ± 0.027 |
| ACVGGGGMKVLG | 0.713 ± 0.065 |
| ADLEQTWRYRLD | 0.674 ± 0.031 |
| ADSVVAGKGASV | 0.686 ± 0.031 |
| ADTIKRTKRSYP | 0.643 ± 0.1 |
| AECMLGLFSGVL | 0.73 ± 0.033 |
| AEFSLFRPHSAA | 0.649 ± 0.11 |

| Sequence | protein stability index |
| --- | --- |
| AEGPAGNRGLGG | 0.6564 ± 0.0058 |
| AEHSIFQLFPKD | 0.7034 ± 0.002 |
| AELPPETKRLTR | 0.626 ± 0.04 |
| AERCCLHPPIPA | 0.541 ± 0.033 |
| AFFLVLSAFRWI | 0.541 ± 0.091 |
| AFFRPGISRPYG | 0.71 ± 0.0072 |
| AFFSFLFSNSFL | 0.664 ± 0.0082 |
| AFFYLRGQESLL | 0.688 ± 0.077 |
| AFHFFLIPHSFF | 0.639 ± 0.025 |
| AFICGWSVGFGW | 0.697 ± 0.0072 |
| AFLLAVIRSSCV | 0.55 ± 0.031 |
| AFNPLPPFPLGF | 0.706 ± 0.034 |
| AGAIWGGDSGVG | 0.607 ± 0.047 |
| AGAWGREVVGWG | 0.708 ± 0.033 |
| AGEGGRKGGGSR | 0.676 ± 0.014 |
| AGGAVGEAGSEG | 0.6939 ± 0.0027 |
| AGGGNGGGGGEK | 0.663 ± 0.019 |
| AGGKRGGDGRWQ | 0.668 ± 0.014 |
| AGGLCLGGVGLG | 0.674 ± 0.079 |
| AGGLHRSRPCVD | 0.709 ± 0.024 |
| AGGSGGEAGSEG | 0.655 ± 0.043 |
| AGGWVGAEGCGG | 0.763 ± 0.024 |
| AGHGTHSNSPFA | 0.693 ± 0.074 |
| AGLGWGARQGAL | 0.67 ± 0.019 |
| AGLVPSSLQSVS | 0.695 ± 0.019 |
| AGPGMARERYFY | 0.634 ± 0.046 |

| Sequence | protein stability index |
| --- | --- |
| AGPPPERDPGAS | 0.684 ± 0.069 |
| AGPWMESPTKSC | 0.702 ± 0.023 |
| AGQGGWREAGGG | 0.676 ± 0.027 |
| AGRAVAAAVRED | 0.728 ± 0.076 |
| AGRGRHPRSTWR | 0.688 ± 0.053 |
| AGRSAHMEVRHE | 0.712 ± 0.047 |
| AGTCVSVGVHRY | 0.599 ± 0.051 |
| AGVRFLVIPRPP | 0.7182 ± 0.004 |
| AGVVCGGGWWWA | 0.772 ± 0.12 |
| AGWPAGARARAP | 0.712 ± 0.016 |
| AHFSRRCKGLFG | 0.741 ± 0.01 |
| AHQGSENRNMSV | 0.688 ± 0.043 |
| AIFAPPFPPTPV | 0.69 ± 0.071 |
| AILFGSSSWVVV | 0.659 ± 0.032 |
| AIRPPLPPPTPL | 0.674 ± 0.046 |
| AIRSSRMPLGSA | 0.668 ± 0.07 |
| AISAGRTFVEVV | 0.657 ± 0.067 |
| AKKKHHKYRRNG | 0.6542 ± 0.0048 |
| AKLDMARGGGVV | 0.645 ± 0.018 |
| AKYNISTMTGHT | 0.695 ± 0.024 |
| ALCVPRTGPFFI | 0.737 ± 0.02 |
| ALHYEVVGRGYL | 0.679 ± 0.036 |
| ALLGIAGGQAAQ | 0.714 ± 0.028 |
| ALLPFLTPLLSR | 0.561 ± 0.054 |
| ALLPLPPSPSLL | 0.719 ± 0.0097 |
| ALLPPPRPLPHP | 0.719 ± 0.014 |

| Sequence | protein stability index |
| --- | --- |
| ALLTWIFTCIHI | 0.571 ± 0.039 |
| ALPAGLRDLPRP | 0.586 ± 0.025 |
| ALPCLSPVLPFL | 0.729 ± 0.014 |
| ALPPPPPPSPLL | 0.642 ± 0.035 |
| ALPPSPLLPTLP | 0.702 ± 0.062 |
| ALSELSIDISHI | 0.632 ± 0.067 |
| ALSFFGSCCLPF | 0.748 ± 0.014 |
| ALSGSFVSWLGG | 0.689 ± 0.061 |
| ALSLPFERVRDT | 0.692 ± 0.022 |
| ALTALQTFRITL | 0.638 ± 0.014 |
| ALWGHSWHSSLR | 0.713 ± 0.015 |
| AMAMSSGQCFSS | 0.67674 ± 0.00043 |
| AMSSVRCRLWPM | 0.761 ± 0.034 |
| ANECYAEDREIR | 0.69 ± 0.027 |
| ANQKRTKQQHRR | 0.722 ± 0.01 |
| ANRLNASYQVSD | 0.6982 ± 0.0038 |
| APCRSLLADLAL | 0.736 ± 0.036 |
| APDLAVWNLGPH | 0.68899 ± 0.00041 |
| APFLDRSSPRSF | 0.707 ± 0.15 |
| APKCRRRNSSGL | 0.68 ± 0.057 |
| APKPPPPPPPLP | 0.709 ± 0.02 |
| APLPPLRPPPSA | 0.687 ± 0.043 |
| APNAGPPTRSHR | 0.737 ± 0.086 |
| APNGTPPLSLAS | 0.646 ± 0.017 |
| APPARSPPPPRP | 0.7216 ± 0.0026 |
| APPFRYLNSVSC | 0.66 ± 0.034 |

| Sequence | protein stability index |
| --- | --- |
| APPPALHPPPPH | 0.688 ± 0.054 |
| APPPLPPLPPSP | 0.727 ± 0.2 |
| APPPPGPLPPPS | 0.698 ± 0.025 |
| APPPPPPLLLSF | 0.626 ± 0.038 |
| APPPPPPPPRPL | 0.642 ± 0.041 |
| APPPPQSRASSP | 0.7379 ± 0.0052 |
| APPPPSLPVPST | 0.739 ± 0.015 |
| APPPSVCPRFPI | 0.796 ± 0.012 |
| APRFLGLLCPLL | 0.655 ± 0.0089 |
| APRIILTCRSLT | 0.5 ± 0.1 |
| APRLRRHPPHEP | 0.696 ± 0.0079 |
| APSPPPRISAWL | 0.749 ± 0.045 |
| APSPSPPPPLPN | 0.685 ± 0.058 |
| APSQGPSRPGVV | 0.708 ± 0.038 |
| APTPACTRPSVA | 0.693 ± 0.033 |
| APTPPPVLLTPP | 0.6694 ± 0.0063 |
| APTRPPRPNLFH | 0.625 ± 0.018 |
| APVGTPARPSLS | 0.725 ± 0.016 |
| APVLSVSFFSFL | 0.718 ± 0.013 |
| AQPGRLHLSCES | 0.688 ± 0.052 |
| ARAAQPVHFLNL | 0.715 ± 0.059 |
| ARAPPLPPPPAL | 0.698 ± 0.0076 |
| ARGARTCDLIRW | 0.717 ± 0.035 |
| ARLHIPSLLPAS | 0.6798 ± 0.0057 |
| ARPLPPSLPPPP | 0.7356 ± 0.0046 |
| ARPVSRWCEASY | 0.645 ± 0.025 |

| Sequence | protein stability index |
| --- | --- |
| ARQSVYNDLVYV | 0.582 ± 0.0065 |
| ARRPHSPLCTTR | 0.7101 ± 0.00075 |
| ARRTSAGVWCTA | 0.705 ± 0.04 |
| ARSLPSPTLPFL | 0.697 ± 0.058 |
| ARSQTGRTYFSP | 0.694 ± 0.062 |
| ARTRRPTPGRPI | 0.719 ± 0.066 |
| ARVAFARLPNVC | 0.66 ± 0.016 |
| ARVIISGYWILY | 0.519 ± 0.048 |
| ARVRAQIRDGRT | 0.6403 ± 0.0021 |
| ASEKFGIMSTML | 0.662 ± 0.045 |
| ASGSLGQIFSGL | 0.699 ± 0.026 |
| ASHPESHIAWPA | 0.691 ± 0.03 |
| ASLLSCRLPCLC | 0.518 ± 0.026 |
| ASPFGFLFCCGG | 0.654 ± 0.025 |
| ASPLFPLPPPPP | 0.71 ± 0.004 |
| ASPPPEVCLSHR | 0.682 ± 0.0092 |
| ASQTTKAKNTGH | 0.6688 ± 0.006 |
| ATATPPAPPPSP | 0.686 ± 0.011 |
| ATLCVVSKLGLC | 0.589 ± 0.0069 |
| ATSPTPALPPLL | 0.743 ± 0.14 |
| ATVDLDLLSTCL | 0.7 ± 0.02 |
| ATVPLVTPLPHF | 0.697 ± 0.042 |
| AVAPPISTLLPV | 0.743 ± 0.04 |
| AVEVRATVWWWW | 0.53259 ± 0.00014 |
| AVFHPPPILPPP | 0.70154 ± 0.00061 |
